Key:
Assay in all cases: cell_activity
[1] = tested on: GAL4(1-147)-Egr-1(3-281) (Saccharomyces cerevisiae / Mus musculus); conditions: GAL4-site-dependent activation; text says amino acids 1-281
[2] = tested on: GAL4(1-147)-Egr-1(420-533) (Saccharomyces cerevisiae / Mus musculus); conditions: GAL4-site-dependent activation
[3] = tested on: GAL4(1-147)-Egr-1(240-330) (Saccharomyces cerevisiae / Mus musculus); conditions: GAL4-site-dependent
[4] = tested on: GAL4(1-147)-Egr-1(281-314) (Saccharomyces cerevisiae / Mus musculus); conditions: 1 µg effector plasmid

Substance	activity [1] [fold]	activity [2] [fold]	activity (fold repression) [3]	activity (fold repression) [4]
GAL4 reporter, five GAL4 sites with E1b minimal promoter	100	5		
GAL4 5 tkCAT reporter plasmid			10	> 5
